Assay results as given in PMC6548965.

Target: AP heterodimer (IAP/PLAP) on LoVo cells (human) (UniProt P09923+P05187)
Assay: flow cytometry
Settings: 4 C, apparent Kd, PBS pH 7.4 (about 137 mM NaCl) with 5 mM MgCl2, 4.5 g/L glucose, 1 mg/mL BSA, 0.1 mg/mL herring sperm DNA, 30 min at 4 C

Chain of AP heterodimer (IAP/PLAP) on LoVo cells (human) (P09923 20-503, chain 1 of 2): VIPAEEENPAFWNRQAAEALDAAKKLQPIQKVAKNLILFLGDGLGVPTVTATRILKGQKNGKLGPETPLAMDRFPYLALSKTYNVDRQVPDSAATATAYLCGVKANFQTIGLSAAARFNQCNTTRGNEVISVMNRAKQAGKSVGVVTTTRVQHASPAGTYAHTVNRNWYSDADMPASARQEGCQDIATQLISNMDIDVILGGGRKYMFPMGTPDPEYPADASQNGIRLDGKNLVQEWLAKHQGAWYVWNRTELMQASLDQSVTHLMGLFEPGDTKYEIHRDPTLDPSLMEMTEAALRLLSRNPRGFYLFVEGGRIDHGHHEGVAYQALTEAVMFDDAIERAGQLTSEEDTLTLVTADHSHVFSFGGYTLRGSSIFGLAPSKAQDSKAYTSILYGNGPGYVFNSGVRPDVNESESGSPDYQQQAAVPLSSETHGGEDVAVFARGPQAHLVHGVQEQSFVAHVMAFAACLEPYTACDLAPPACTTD
Chain of AP heterodimer (IAP/PLAP) on LoVo cells (human) (P05187 23-506, chain 2 of 2): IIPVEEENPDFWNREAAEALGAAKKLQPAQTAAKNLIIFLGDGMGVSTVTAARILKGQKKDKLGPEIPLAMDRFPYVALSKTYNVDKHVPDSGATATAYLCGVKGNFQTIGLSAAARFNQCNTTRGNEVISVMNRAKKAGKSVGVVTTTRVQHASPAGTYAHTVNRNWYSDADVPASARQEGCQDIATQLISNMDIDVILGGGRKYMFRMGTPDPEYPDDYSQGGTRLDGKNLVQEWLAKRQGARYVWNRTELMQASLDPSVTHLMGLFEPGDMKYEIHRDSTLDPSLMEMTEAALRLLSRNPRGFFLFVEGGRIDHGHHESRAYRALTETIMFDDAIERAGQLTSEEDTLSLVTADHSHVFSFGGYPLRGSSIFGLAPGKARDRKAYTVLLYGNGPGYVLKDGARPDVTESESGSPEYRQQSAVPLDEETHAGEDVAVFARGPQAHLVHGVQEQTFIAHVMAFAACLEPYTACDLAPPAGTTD

Sequence | Kd [nM]
CAAGGAATAGGGGTCGGTGTGGGTGGTTATGATTGGCTTCCTTG [BG2] | 2.5
TAAAAAATAGGGGTCGGTGTGGGTGGTTATGATTGGCTTTTTTA [BG4] | 11.5
TAGGGGTCGGTGTGGGTGGTTATGATTGGC [BG2c] | 9.3
